Experiment: Circular dichroism melting temperature (Tm), CD signal at 222 nm versus temperature
Type: physicochemical
Parameters: key to + ΔTm / − ΔTm: Tm difference in °C from reference 3M-GGBP
Conditions: for increase of Tm over the reference protein (in words): among the thirteen modified GGBPs, reference 3M-GGBP; for + ΔTm: increase of Tm over reference protein 3M-GGBP; for + ΔTm / − ΔTm: CD, PBS; for Previously Tested, See - Table II: ΔTm: repeated from Table II, modified 3M-GGBP versus 3M-GGBP; for − ΔTm: decrease of Tm versus reference protein 3M-GGBP
Description: Circular Dichroism (CD) spectra were preformed on a JASCO J-810. Samples of purified fluorophore-labeled proteins were exhaustively dialyzed into phosphate buffered saline (PBS) (comprised of 137 mM NaCl, 10 mM phosphate and 2.7 mM KCl, pH 7.4). The loss of secondary structure of 3M-GGBP and W183C-GGBP was observed by recording the CD signal at 222 nm as a function of temperature. During the experiment, the temperature of the sample changed at a rate of ˜1° C./min between 20 and 80° C. The apparent melting temperature at the midpoint of the transition (Tm) was obtained by fitting the experimental data points (CD signal versus temperature) with a sigmoidal function.

Molecule | increase of Tm over the reference protein (in words) | + ΔTm | Previously Tested, See - Table II: ΔTm | − ΔTm
Modified protein 1: 3M-GGBP (SEQ ID NO:3) with substitution N39I (protein) ADTRIGVTIYKYDDNFMSVVRKAIEQDAKAAPDVQLLMIDSQNDQSKQNDQIDVLLAKGVKALAINLVDPAAAGTVIEKARGQNVPVVFFNKEPSRKALDSYDKAYYVGTDSKESGIIQGDLIAKHWAANQGWDLNKDGQIQFVLLKGCPGHPDAEARTTYVIKELNDKGIKTEQLQLDTAMWDTAQAKDKMDAWLSGPNANKIEVVIANNDRMAMGAVEALKAHNKSSIPVFGVDASPEALALVKSGALAGTVLNDANNQAKATFDLAKNLADGKGAADGTNWKIDNKVVRVPYVGVDKDNLAEFSKK | greatest increase of Tm | 1 | +1 | –
Modified protein 3: 3M-GGBP (SEQ ID NO:3) with substitutions G82E, Q83K, N84D (protein) ADTRIGVTIYKYDDNFMSVVRKAIEQDAKAAPDVQLLMNDSQNDQSKQNDQIDVLLAKGVKALAINLVDPAAAGTVIEKAREKDVPVVFFNKEPSRKALDSYDKAYYVGTDSKESGIIQGDLIAKHWAANQGWDLNKDGQIQFVLLKGCPGHPDAEARTTYVIKELNDKGIKTEQLQLDTAMWDTAQAKDKMDAWLSGPNANKIEVVIANNDRMAMGAVEALKAHNKSSIPVFGVDASPEALALVKSGALAGTVLNDANNQAKATFDLAKNLADGKGAADGTNWKIDNKVVRVPYVGVDKDNLAEFSKK | greatest increase of Tm | 1.5 | – | –
Modified protein 5: 3M-GGBP (SEQ ID NO:3) with substitutions Q175E, Q177H, L178M (protein) ADTRIGVTIYKYDDNFMSVVRKAIEQDAKAAPDVQLLMNDSQNDQSKQNDQIDVLLAKGVKALAINLVDPAAAGTVIEKARGQNVPVVFFNKEPSRKALDSYDKAYYVGTDSKESGIIQGDLIAKHWAANQGWDLNKDGQIQFVLLKGCPGHPDAEARTTYVIKELNDKGIKTEELHMDTAMWDTAQAKDKMDAWLSGPNANKIEVVIANNDRMAMGAVEALKAHNKSSIPVFGVDASPEALALVKSGALAGTVLNDANNQAKATFDLAKNLADGKGAADGTNWKIDNKVVRVPYVGVDKDNLAEFSKK | greatest increase of Tm | 3 | – | –
Modified protein 10: 3M-GGBP (SEQ ID NO:3) with substitutions N259E, N260S (protein) ADTRIGVTIYKYDDNFMSVVRKAIEQDAKAAPDVQLLMNDSQNDQSKQNDQIDVLLAKGVKALAINLVDPAAAGTVIEKARGQNVPVVFFNKEPSRKALDSYDKAYYVGTDSKESGIIQGDLIAKHWAANQGWDLNKDGQIQFVLLKGCPGHPDAEARTTYVIKELNDKGIKTEQLQLDTAMWDTAQAKDKMDAWLSGPNANKIEVVIANNDRMAMGAVEALKAHNKSSIPVFGVDASPEALALVKSGALAGTVLNDAESQAKATFDLAKNLADGKGAADGTNWKIDNKVVRVPYVGVDKDNLAEFSKK | greatest increase of Tm | 3.6 | – | –
Modified protein 7: 3M-GGBP (SEQ ID NO:3) with substitutions G198S, P199S, N200K (protein) ADTRIGVTIYKYDDNFMSVVRKAIEQDAKAAPDVQLLMNDSQNDQSKQNDQIDVLLAKGVKALAINLVDPAAAGTVIEKARGQNVPVVFFNKEPSRKALDSYDKAYYVGTDSKESGIIQGDLIAKHWAANQGWDLNKDGQIQFVLLKGCPGHPDAEARTTYVIKELNDKGIKTEQLQLDTAMWDTAQAKDKMDAWLSSSKANKIEVVIANNDRMAMGAVEALKAHNKSSIPVFGVDASPEALALVKSGALAGTVLNDANNQAKATFDLAKNLADGKGAADGTNWKIDNKVVRVPYVGVDKDNLAEFSKK | – | 0.5 | +0.5 | –
Modified protein 8: 3M-GGBP (SEQ ID NO:3) with substitution N226G (protein) ADTRIGVTIYKYDDNFMSVVRKAIEQDAKAAPDVQLLMNDSQNDQSKQNDQIDVLLAKGVKALAINLVDPAAAGTVIEKARGQNVPVVFFNKEPSRKALDSYDKAYYVGTDSKESGIIQGDLIAKHWAANQGWDLNKDGQIQFVLLKGCPGHPDAEARTTYVIKELNDKGIKTEQLQLDTAMWDTAQAKDKMDAWLSGPNANKIEVVIANNDRMAMGAVEALKAHGKSSIPVFGVDASPEALALVKSGALAGTVLNDANNQAKATFDLAKNLADGKGAADGTNWKIDNKVVRVPYVGVDKDNLAEFSKK | – | 0.9 | – | –
Modified protein 9: 3M-GGBP (SEQ ID NO:3) with substitution N226K (protein) ADTRIGVTIYKYDDNFMSVVRKAIEQDAKAAPDVQLLMNDSQNDQSKQNDQIDVLLAKGVKALAINLVDPAAAGTVIEKARGQNVPVVFFNKEPSRKALDSYDKAYYVGTDSKESGIIQGDLIAKHWAANQGWDLNKDGQIQFVLLKGCPGHPDAEARTTYVIKELNDKGIKTEQLQLDTAMWDTAQAKDKMDAWLSGPNANKIEVVIANNDRMAMGAVEALKAHKKSSIPVFGVDASPEALALVKSGALAGTVLNDANNQAKATFDLAKNLADGKGAADGTNWKIDNKVVRVPYVGVDKDNLAEFSKK | – | 0.3 | – | –
Modified protein 11: 3M-GGBP (SEQ ID NO:3) with substitutions K270Y, N271S (protein) ADTRIGVTIYKYDDNFMSVVRKAIEQDAKAAPDVQLLMNDSQNDQSKQNDQIDVLLAKGVKALAINLVDPAAAGTVIEKARGQNVPVVFFNKEPSRKALDSYDKAYYVGTDSKESGIIQGDLIAKHWAANQGWDLNKDGQIQFVLLKGCPGHPDAEARTTYVIKELNDKGIKTEQLQLDTAMWDTAQAKDKMDAWLSGPNANKIEVVIANNDRMAMGAVEALKAHNKSSIPVFGVDASPEALALVKSGALAGTVLNDANNQAKATFDLAYSLADGKGAADGTNWKIDNKVVRVPYVGVDKDNLAEFSKK | – | – | −3.5 | 3.5
Modified protein 12: 3M-GGBP (SEQ ID NO:3) with substitutions N283D, W284L (protein) ADTRIGVTIYKYDDNFMSVVRKAIEQDAKAAPDVQLLMNDSQNDQSKQNDQIDVLLAKGVKALAINLVDPAAAGTVIEKARGQNVPVVFFNKEPSRKALDSYDKAYYVGTDSKESGIIQGDLIAKHWAANQGWDLNKDGQIQFVLLKGCPGHPDAEARTTYVIKELNDKGIKTEQLQLDTAMWDTAQAKDKMDAWLSGPNANKIEVVIANNDRMAMGAVEALKAHNKSSIPVFGVDASPEALALVKSGALAGTVLNDANNQAKATFDLAKNLADGKGAADGTDLKIDNKVVRVPYVGVDKDNLAEFSKK | – | – | −3.7 | 3.7
Modified protein 13: 3M-GGBP (SEQ ID NO:3) with substitution N302T (protein) ADTRIGVTIYKYDDNFMSVVRKAIEQDAKAAPDVQLLMNDSQNDQSKQNDQIDVLLAKGVKALAINLVDPAAAGTVIEKARGQNVPVVFFNKEPSRKALDSYDKAYYVGTDSKESGIIQGDLIAKHWAANQGWDLNKDGQIQFVLLKGCPGHPDAEARTTYVIKELNDKGIKTEQLQLDTAMWDTAQAKDKMDAWLSGPNANKIEVVIANNDRMAMGAVEALKAHNKSSIPVFGVDASPEALALVKSGALAGTVLNDANNQAKATFDLAKNLADGKGAADGTNWKIDNKVVRVPYVGVDKDTLAEFSKK | – | – | – | 0.2
Modified protein 4: 3M-GGBP (SEQ ID NO:3) with substitution N130D (protein) ADTRIGVTIYKYDDNFMSVVRKAIEQDAKAAPDVQLLMNDSQNDQSKQNDQIDVLLAKGVKALAINLVDPAAAGTVIEKARGQNVPVVFFNKEPSRKALDSYDKAYYVGTDSKESGIIQGDLIAKHWAADQGWDLNKDGQIQFVLLKGCPGHPDAEARTTYVIKELNDKGIKTEQLQLDTAMWDTAQAKDKMDAWLSGPNANKIEVVIANNDRMAMGAVEALKAHNKSSIPVFGVDASPEALALVKSGALAGTVLNDANNQAKATFDLAKNLADGKGAADGTNWKIDNKVVRVPYVGVDKDNLAEFSKK | – | – | −5.2 | 5.2
Modified protein 6: 3M-GGBP (SEQ ID NO:3) with substitutions Q175I, Q177E (protein) ADTRIGVTIYKYDDNFMSVVRKAIEQDAKAAPDVQLLMNDSQNDQSKQNDQIDVLLAKGVKALAINLVDPAAAGTVIEKARGQNVPVVFFNKEPSRKALDSYDKAYYVGTDSKESGIIQGDLIAKHWAANQGWDLNKDGQIQFVLLKGCPGHPDAEARTTYVIKELNDKGIKTEILELDTAMWDTAQAKDKMDAWLSGPNANKIEVVIANNDRMAMGAVEALKAHNKSSIPVFGVDASPEALALVKSGALAGTVLNDANNQAKATFDLAKNLADGKGAADGTNWKIDNKVVRVPYVGVDKDNLAEFSKK | – | – | – | 0.3
